Experimental data taken from patent publication US20250388669A1 (published 2025).

T1: B7H3 (UniProt Q5ZPR3 29-466, limits assumed)
T1 sequence (looked up): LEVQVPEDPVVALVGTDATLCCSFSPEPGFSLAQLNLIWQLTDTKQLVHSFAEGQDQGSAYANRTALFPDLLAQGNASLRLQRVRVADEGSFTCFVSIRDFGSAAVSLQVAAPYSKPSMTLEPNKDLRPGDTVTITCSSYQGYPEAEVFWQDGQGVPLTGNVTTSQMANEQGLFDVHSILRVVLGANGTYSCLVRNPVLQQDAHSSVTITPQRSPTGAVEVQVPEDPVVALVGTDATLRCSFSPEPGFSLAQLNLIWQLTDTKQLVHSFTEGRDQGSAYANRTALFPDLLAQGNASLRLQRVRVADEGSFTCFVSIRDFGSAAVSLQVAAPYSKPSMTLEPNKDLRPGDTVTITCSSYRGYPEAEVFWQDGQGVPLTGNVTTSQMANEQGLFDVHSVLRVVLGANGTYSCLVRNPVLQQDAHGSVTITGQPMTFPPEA


Assays:
PD-1 (binding assay) = PD-1 (binding assay) (UniProt Q15116 25-167, limits assumed); assay: FCM or ELISA, graded
PD-1 (binding assay), sequence (Q15116 25-167 limits assumed): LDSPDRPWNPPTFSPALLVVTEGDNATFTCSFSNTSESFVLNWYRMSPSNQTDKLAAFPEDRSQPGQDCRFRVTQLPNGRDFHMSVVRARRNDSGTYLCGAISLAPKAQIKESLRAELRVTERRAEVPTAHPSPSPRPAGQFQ

CD40 = CD40 (UniProt P25942 21-193, limits assumed); assay: FCM or ELISA, graded
CD40, sequence (P25942 21-193 limits assumed): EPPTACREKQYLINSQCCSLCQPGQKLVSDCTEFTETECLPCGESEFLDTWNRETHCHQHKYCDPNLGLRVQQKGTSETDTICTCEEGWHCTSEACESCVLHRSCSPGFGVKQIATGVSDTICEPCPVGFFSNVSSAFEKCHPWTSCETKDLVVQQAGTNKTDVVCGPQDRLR

B7H3 = target: T1, B7H3; assay: FCM or ELISA (graded summary table)

Binder | binding result (PD-1 (binding assay)) | binding result (CD40) | binding result (B7H3)
Ly2405 (bispecific antibody, human IgG1, kappa, PD-1 Fabs (Ly516) x terminal CD40 Fv (TM383)) heavy 1: not shown heavy 2: QVTLKESGPALVKPTQTLTLTCTFSGFSLSTSGTCVSWIRQPPGKALEWLATICWEDSKGYNPSLKSRLTISKDTSKNQAVLTMTNMDPVDTATYYCARREDSGYFWFPYWGQGTLVTVSSASTKGPSVFPLAPSSKSTSGGTAALGCLVKDYFPEPVTVSWNSGALTSGVHTFPAVLQSSGLYSLSSVVTVPSSSLGTQTYICNVNHKPSNTKVDKKVEPKSCDKTHTCPPCPAPEAAGPSVFLFPPKPKDTLMISRTPEVTCVVVDVSHEDPEVKFNWYVDGVEVHNAKTKPREEQYNSTYRVVSVLTVLHQDWLNGKEYKCKVSNKALPAPIEKTISKAKGQPREPQVYTLPPSREEMTKNQVSLSCAVKGFYPSDIAVEWESNGQPENNYKTTPPVLDSDGSFFLVSKLTVDKSRWQQGNVFSCSVMHEALHNRFTQKSLSLSPGGGGGSGGGGSGGGGSGGGGSDIQMTQSPSSVSASVGDRVTITCRASQGIYSWLAWYQQKPGKAPNLLIYTASTLQSGVPSRFSGSGSGTDFTLTISSLQPEDFATYYCQQANIFPLTFGGGTKVEIK light: NIQMTQSPSSLSASVGDRVTITCKAGQNVNNYLAWYQQKPGKAPKVLIFNANSLQTGVPSRFSGSGSGTDFTLTISSLQPEDFATYYCQQYNSWPTFGGGTKVEIKRTVAAPSVFIFPPSDEQLKSGTASVVCLLNNFYPREAKVQWKVDNALQSGNSQESVTEQDSKDSTYSLSSTLTLSKADYEKHKVYACEVTHQGLSSPVTKSFNRGEC | binds | binds | 
Ly2409 (bispecific antibody, PD-1 Fabs (Ly516) x central CD40 Fv (TM559)) heavy 1: QVTLKESGPALVKPTQTLTLTCTFSGFSLSTSGTCVSWIRQPPGKALEWLATICWEDSKGYNPSLKSRLTISKDTSKNQAVLTMTNMDPVDTATYYCARREDSGYFWFPYWGQGTLVTVSSASTKGPSVFPLAPSSKSTSGGTAALGCLVKDYFPEPVTVSWNSGALTSGVHTFPAVLQSSGLYSLSSVVTVPSSSLGTQTYICNVNHKPSNTKVDKKVEPKSCGGGGSGGGGSGGGGSGGGGSEVQLVESGGGLVQPGGSLRLSCAASGFTFTNYGLHWVRQAPGKGLEWVSSISPSGGVTYYRDSVKGRFTISRDNSKNTLYLQMNSLRAEDTAVYYCAKPFLGWGGANWIAHWGQGTLVTVSSGGGGSDKTHTCPPCPAPEAAGPSVFLFPPKPKDTLMISRTPEVTCVVVDVSHEDPEVKFNWYVDGVEVHNAKTKPREEQYNSTYRVVSVLTVLHQDWLNGKEYKCKVSNKALPAPIEKTISKAKGQPREPQVYTLPPSREEMTKNQVSLWCLVKGFYPSDIAVEWESNGQPENNYKTTPPVLDSDGSFFLYSKLTVDKSRWQQGNVFSCSVMHEALHNHYTQKSLSLSPG heavy 2: QVTLKESGPALVKPTQTLTLTCTFSGFSLSTSGTCVSWIRQPPGKALEWLATICWEDSKGYNPSLKSRLTISKDTSKNQAVLTMTNMDPVDTATYYCARREDSGYFWFPYWGQGTLVTVSSASTKGPSVFPLAPSSKSTSGGTAALGCLVKDYFPEPVTVSWNSGALTSGVHTFPAVLQSSGLYSLSSVVTVPSSSLGTQTYICNVNHKPSNTKVDKKVEPKSCGGGGSGGGGSGGGGSGGGGSDIQMTQSPSSLSASVGDRVTITCLASEDISNDLAWYQQKPGKAPKLLIYFVDRLLDGVPSRFSGSGSGTDFTLTISSLQPEDFATYYCQQSYKYPPTFGQGTKLEIKGGGGSDKTHTCPPCPAPEAAGPSVFLFPPKPKDTLMISRTPEVTCVVVDVSHEDPEVKFNWYVDGVEVHNAKTKPREEQYNSTYRVVSVLTVLHQDWLNGKEYKCKVSNKALPAPIEKTISKAKGQPREPQVYTLPPSREEMTKNQVSLSCAVKGFYPSDIAVEWESNGQPENNYKTTPPVLDSDGSFFLVSKLTVDKSRWQQGNVFSCSVMHEALHNRFTQKSLSLSPG light: NIQMTQSPSSLSASVGDRVTITCKAGQNVNNYLAWYQQKPGKAPKVLIFNANSLQTGVPSRFSGSGSGTDFTLTISSLQPEDFATYYCQQYNSWPTFGGGTKVEIKRTVAAPSVFIFPPSDEQLKSGTASVVCLLNNFYPREAKVQWKVDNALQSGNSQESVTEQDSKDSTYSLSSTLTLSKADYEKHKVYACEVTHQGLSSPVTKSFNRGEC | binds | binds | 
Ly1965 (bispecific antibody, Bispecific B7H3 (two Fabs) / CD3 (central Fv)) chain 1: QVQLVQSGAEVKKPGASVKVSCKASGYTFTSYVMHWVRQKPGQGLEWIGYINPYNEGTESTDKFKGRATMTSDKSTSTVYMELSSLRSEDTAVYYCASIYYGYEGTYFGVWGQGTLVTVSSASTKGPSVFPLAPSSKSTSGGTAALGCLVKDYFPEPVTVSWNSGALTSGVHTFPAVLQSSGLYSLSSVVTVPSSSLGTQTYICNVNHKPSNTKVDKKVEPKSCGGGGSGGGGSGGGGSGGGGSEVQLVESGGGLVQPGGSLRLSCAASGFTFSTYAMNWVRQAPGKGLEWVGRIRSKYNNYATYYADSVKGRFTISRDDSKNSLYLQMNSLKTEDTAVYYCVRHGNFGNSYVSWFAYWGQGTLVTVSSGGGGSDKTHTCPPCPAPEAAGPSVFLFPPKPKDTLMISRTPEVTCVVVDVSHEDPEVKFNWYVDGVEVHNAKTKPREEQYNSTYRVVSVLTVLHQDWLNGKEYKCKVSNKALPAPIEKTISKAKGQPREPQVYTLPPSREEMTKNQVSLWCLVKGFYPSDIAVEWESNGQPENNYKTTPPVLDSDGSFFLYSKLTVDKSRWQQGNVFSCSVMHEALHNHYTQKSLSLSPG chain 2: QVQLVQSGAEVKKPGASVKVSCKASGYTFTSYVMHWVRQKPGQGLEWIGYINPYNEGTESTDKFKGRATMTSDKSTSTVYMELSSLRSEDTAVYYCASIYYGYEGTYFGVWGQGTLVTVSSASTKGPSVFPLAPSSKSTSGGTAALGCLVKDYFPEPVTVSWNSGALTSGVHTFPAVLQSSGLYSLSSVVTVPSSSLGTQTYICNVNHKPSNTKVDKKVEPKSCGGGGSGGGGSGGGGSGGGGSQAVVTQEPSLTVSPGGTVTLTCRSSTGAVTTSNYANWVQQKPGQAPRGLIGGTNKRAPWTPARFSGSLLGGKAALTITGAQAEDEADYYCALWYSNLWVFGGGTKLTVLGGGGSDKTHTCPPCPAPEAAGPSVFLFPPKPKDTLMISRTPEVTCVVVDVSHEDPEVKFNWYVDGVEVHNAKTKPREEQYNSTYRVVSVLTVLHQDWLNGKEYKCKVSNKALPAPIEKTISKAKGQPREPQVYTLPPSREEMTKNQVSLSCAVKGFYPSDIAVEWESNGQPENNYKTTPPVLDSDGSFFLVSKLTVDKSRWQQGNVFSCSVMHEALHNRFTQKSLSLSPG light: EIVLTQSPATLSLSPGERATLSCRASSSVSYMHWYQQKPGQAPRPWIYATSNLASGIPARFSGSRSGTDYTLTISSLEPEDFAVYYCQQWSSNTLTFGGGTKVEIKRTVAAPSVFIFPPSDEQLKSGTASVVCLLNNFYPREAKVQWKVDNALQSGNSQESVTEQDSKDSTYSLSSTLTLSKADYEKHKVYACEVTHQGLSSPVTKSFNRGEC |  |  | binds
